From patent US6495376 (dated 2002) come the findings set out here.

Read-outs that look alike come from different tables or passages of the source. Where no end group is shown, it is not given here. [ ]: non-standard residue; d: D form. fluorescein = N-terminal fluorescein label; pT = C[C@@H](OP(=O)(O)O)[C@H](N)C(=O)O; pS = N[C@@H](COP(=O)(O)O)C(=O)O

For experiment [1], the target named is T1, GST (UniProt P08515 1-218 = GST).
T1 construct: Control protein; also called control GST
Description: fluorescence anisotropy. On the technique in general: Fluorescence polarisation rises when a labelled molecule tumbles more slowly, as on binding a larger partner.

For another experiment, the target named is T2, GST-WW-domain of Pin1 (human, UniProt Q13526 1-54).
T2 construct: range 1-54; also called GST-Pin1 WW-domain; Pin1 WW-domain; not shown: glutathione S-transferase (GST), N-terminal fusion partner
Description: fluorescence anisotropy.

A further experiment concerns the target T3, Pin1^Y23A (human, UniProt Q13526 1-163).
T3 construct: mature; also called Pin1^Y23A mutant
Description: ELISA. On the technique in general: An ELISA detects its analyte on a solid surface through an enzyme-linked reagent.

In experiment [2] the target is T1, GST. The experiment can be described thus: fluorescence anisotropy. The source holds these as a separate data set.

Consider fluorescein-IPGTPPPNYD [Pro-Rich peptide IPGTPPPNYD], for which the binding result with GST [1] and in the experiment with GST-WW-domain of Pin1 was “no binding” throughout.

B1: tau peptide KVAVVRTPPKSPS (pT-231), SEQ ID NO: 30 (peptide)
peptide: KVAVVR[pT]PPKSPS
notes: also called pT231 tau peptide (row of Pin1^Y23A)
In the case of B1, in the experiment with Pin1^Y23A, the binding result is on record as “no binding”.

For the molecule fluorescein-EQPLTPVTDL [Cdc25 Peptide EQPLTPVTDL (nonphosphorylated)], in the experiment with GST [1], the binding result is listed as “no binding”.

As to fluorescein-EQPL[pT]PVTDL (also called Cdc25C peptide) [Cdc25 Peptide EQPLpTPVTDL], in the experiment with GST [1], the binding result is listed as “no binding”.

For fluorescein-WFYSPFLE (also called nonphosphorylated peptide) [WFYSPFLE, nonphosphorylated control peptide], the binding result with GST [2] is on record as “no binding”.

As to fluorescein-WFY[pS]PFLE (also called phosphopeptide) [Pintide analogue WFYpSPFLE], the binding result in the experiment with GST [2] is given as “no binding”.
